For test [1], the target named is T1, synthetic Abeta1-42 peptide (UniProt P05067 672-713).
T1 construct: domain: Abeta1-42; also called linear synthetic Abeta1-42 monomers
In words: ELISA, synthetic Abeta1-42 peptide coated on the plate. For orientation: In an ELISA, binding on a coated surface is turned into a signal by an enzyme label.

The target in test [2] is T2, artificial amyloid fibrils prepared from synthetic Abeta1-42 peptides (UniProt P05067 672-713).
T2 construct: domain: Abeta1-42; Fibrillar assembly of many copies; also called Abeta1-42 fibrils; synthetic Abeta fibrils
In words: ELISA, fibrillar Abeta1-42 coated on the plate, antibody 0.1pM to 100nM [right panel].

Test [3] has as its target T3, recombinant human NI-101.11 antibody.
T3 construct: also called human antibody against brain beta-amyloid
The test can be described thus: competition ELISA: NI-101.11 (1nM) pre-incubated with the peptide at 10 nM to 10 µM, then binding to the coated plate (the coat is not named) [right panel].

Test [4] concerns the target T4, monomeric synthetic Abeta (UniProt P05067 672-713).
T4 construct: also called monomeric Abeta; linear monomeric Abeta peptide
The test can be described thus: ELISA, monomeric synthetic Abeta coated on the plate, antibody titrated.

Experimental findings from US20190263896A1 (UNIVERSITY OF ZURICH, published 2019) are described below.

B1: recombinant NI-101.12 (antibody, V domains shown)
VH: EVQLVESGPGLVKPAETLSLTCTVSGGSIRSGSICWYWIRQPPGKGLEWIGYFCYSGATFYTPSLRGRLTISVDASKNQLSLSLSSVTAADTAVYYCARRAGENSGGIEPYYGMDVWGQGTTVTVSS
VL: EIVLTQSPSSLSASIGDRVTITCRASESINKYVNWYQQKPGKAPKLLIYAASSLQSGAPSRVSGSGFGRDFSLTISGLQAEDFGAYFCQQSYSAPYTFGQGTKVEIKR
As for B1, in test [1], the binding result was “binds”.

B2: recombinant human antibody NI-101.13A (antibody, V domains shown)
VH: QVQLQESGPGLVKPSETLSLTCTVSGGSISRRSYYWGWIRQSPGKGLEWSGSIHYSGSTYYNPSLKSRVTISVDTSKNQFSLKLSSVTAADTAVYYCARSRWGSSWVFDYWGQGTLVTVSS
VL: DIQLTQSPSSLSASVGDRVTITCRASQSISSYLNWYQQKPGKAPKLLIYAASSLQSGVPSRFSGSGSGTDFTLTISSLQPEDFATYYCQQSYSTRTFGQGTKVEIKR
Regarding B2, in test [2], the binding result is “binds”.

B3: recombinant human antibody NI-101.13B (antibody, V domains shown)
VH: B2 VH
VL: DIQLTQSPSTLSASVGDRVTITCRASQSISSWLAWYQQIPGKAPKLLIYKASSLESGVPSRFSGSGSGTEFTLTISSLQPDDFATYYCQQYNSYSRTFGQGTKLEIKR
For B3, the binding result in test [2] is “binds”.

B4: linear synthetic N-terminal Abeta-derived polypeptide representing positions 1 to 16 (peptide)
peptide: DAEFRHDSGYEVHHQK
notes: domain: Abeta1-16; the numbers count on the Abeta peptide; also called Abeta1-16; monomeric Abeta1-16
Turning to B4, in test [3], the binding result was “no binding (tested: 10 µM)”.

B5: control antibody 22C4 (antibody, V domains shown)
VH: QVQLQQSGPELVKPGASVKISCKTSGYTFTEYTMHWVKQSHGKSLEWIGGVNPYNDNTSYIRKLQGKVTLTVDRSSSTAYMELRSLTSEDSAVYFCARYGGLRPYYFPMDFWGQGTSVTVSS
VL: DIVLTQSPAILSASPGEKVTLTCRASSSVNYMHWYQQKPGSPPKAWIYATSNLASGVPDRFSASGSGTSYSLTISRVEAEDAATYYCQQWRTNPPTFGAGTKLELK
A word on the EC50 (read off the curve): it is the concentration giving half of the maximal effect. In the case of B5, in test [4], the “EC50 (read off the curve)” value was about 1 nM.
